Source: US20210380703A1 (RIGEL PHARMACEUTICALS, published 2021)

Assays:
[1] = biological target: T1, human ACVR2A (human, UniProt P27037 20-135, limits assumed); assay: ELISA
T1 construct: also called activin receptor, type II A
Method in brief: (§1)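 Monoclonal antibodies were first applied to human or mouse ACVR2A, alongside biotinylated goat anti-human kappa light chain (positive control) and human Fc (negative control); binding was then determined by ELISA.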

[2] = biological target: mouse ACVR2A (mouse, UniProt P27038 20-135, limits assumed); assay: ELISA
Method in brief: as §1

[3] = biological target: T2, biotinylated goat anti-human kappa light chain; assay: ELISA, positive control
T2 construct: positive control of the ELISA
Method in brief: as §1
Further: test concentration or dose not given here.

T1 sequence (P27037 20-135 limits assumed): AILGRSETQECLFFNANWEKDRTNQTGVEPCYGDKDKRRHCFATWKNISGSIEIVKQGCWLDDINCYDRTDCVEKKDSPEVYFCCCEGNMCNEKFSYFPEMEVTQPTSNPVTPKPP
Chain of mouse ACVR2A (P27038 20-135 limits assumed): as the sequence (P27037 20-135 limits assumed) above, with K20R, V73I counted along it

optical density [1] [OD]	optical density [2] [OD]	optical density [3] [OD]	Binder
2.48	2.61	3.46	368_C09 (antibody, V domains shown, Group I) VH: EVQLLESGGGLVQPGGSLRLSCAASGFTFSSYSMHWVRQAPGKGLEWVSNINYNGGYTGYADSVKGRFTISRDNSKNTLYLQMNSLRAEDTAVYYCARAANWHDTHLDYWGQGTLVTVSS VL: DIQMTQSPSSLSASVGDRVTITCRASQSILTYVNWYQQKPGKAPKLLIYAATSLASGVPSRFSGSGSGTDFTLTISSLQPEDFATYYCQQSYDLPLTFGGGTKVEIK
2.19	2.11	3.46	368_D09 (antibody, V domains shown, Group I) VH: EVQLLESGGGLVQPGGSLRLSCAASGFTFDSYGMHWVRQAPGKGLEWVAGINYNSGYKSYADSVKGRFTISRDNSKNTLYLQMNSLRAEDTAVYYCARAANWHDTHLDYWGQGTLVTVSS VL: DIQMTQSPSSLSASVGDRVTITCRASQSIVSYVNWYQQKPGKAPKLLIYAATSLASGVPSRFSGSGSGTDFTLTISSLQPEDFATYYCQQSYDNPLTFGGGTKVEIK
2.25	2.6	3.52	368_F10 (antibody, V domains shown, Group I) VH: EVQLLESGGGLVQPGGSLRLSCAASGFTFSSYGMNWVRQAPGKGLEWVAGINYNSGYTSYADSVKGRFTISRDNSKNTLYLQMNSLRAEDTAVYYCARAANWHDTHLDYWGQGTLVTVSS VL: DIQMTQSPSSLSASVGDRVTITCRASQSIVSYVNWYQQKPGKAPKLLIYAATSRASGVPSRFSGSGSGTDFTLTISSLQPEDFATYYCQQSYDTPLTFGGGTKVEIK
2.49	2.45	3.62	368_C12 (antibody, V domains shown, Group II) VH: EVQLLESGGGLVQPGGSLRLSCAASGFTFDSYGMHWVRQAPGKGLEWVASINYNGGYTSYADSVKGRFTISRDNSKNTLYLQMNSLRAEDTAVYYCARAATWHDTHLDYWGQGTLVTVSS VL: DIQMTQSPSSLSASVGDRVTITCRASQSILTYLNWYQQKPGKAPKLLIYAATSRASGVPSRFSGSGSGTDFTLTISSLQPEDFATYYCQQSDSNPLTFGGGTKVEIK
2.18	2.27	3.65	368_F02 (antibody, V domains shown, Group I) VH: EVQLLESGGGLVQPGGSLRLSCAASGFTFSSYGMNWVRQAPGKGLEWVASINYNSGYTSYADSVKGRFTISRDNSKNTLYLQMNSLRAEDTAVYYCARAANWHDTHLDYWGQGTLVTVSS VL: not shown
2.2	2.46	3.26	368_D07 (antibody, V domains shown, Group II) VH: EVQLLESGGGLVQPGGSLRLSCAASGFTFDSYGMHWVRQAPGKGLEWVASINYNGGYTGYADSVKGRFTISRDNSKNTLYLQMNSLRAEDTAVYYCARAATWHDTHLDYWGQGTLVTVSS VL: not shown
2.03	2.11	3.41	368_D06 (antibody, V domains shown, Group II) VH: EVQLLESGGGLVQPGGSLRLSCAASGFTFSSYGMNWVRQAPGKGLEWVSNINYNGGYTGYADSVKGRFTISRDNSKNTLYLQMNSLRAEDTAVYYCARAATWHDTHLDYWGQGTLVTVSS VL: DIQMTQSPSSLSASVGDRVTITCRASQSILSYVNWYQQKPGKAPKLVIYAATSRHSGVPSRFSGSGSGTDFTLTISSLQPEDFATYYCQQSYENPLTFGGGTKVEIK
2.27	2.67	3.5	368_E08 (antibody, V domains shown, Group II) VH: EVQLLESGGGLVQPGGSLRLSCAASGFTFDSYGMHWVRQAPGKGLEWVANINYNSGYTGYADSVKGRFTISRDNSKNTLYLQMNSLRAEDTAVYYCARAATWHDTHLDYWGQGTLVTVSS VL: DIQMTQSPSSLSASVGDRVTITCRASQSILSYVNWYQQKPGKAPKLVIYAATSLHSGVPSRFSGSGSGTDFTLTISSLQPEDFATYYCQQSYETPLTFGGGTKVEIK
1.87	2.07	3.37	368_E05 (antibody, V domains shown, Group II) VH: EVQLLESGGGLVQPGGSLRLSCAASGFTFDSYSMHWVRQAPGKGLEWVSSINYNGGYKSYADSVKGRFTISRDNSKNTLYLQMNSLRAEDTAVYYCARAATWHDTHLDYWGQGTLVTVSS VL: DIQMTQSPSSLSASVGDRVTITCRASQSILSYLNWYQQKPGKAPKLVIYAATSRASGVPSRFSGSGSGTDFTLTISSLQPEDFATYYCQQSYSSPLTFGGGTKVEIK
2.39	2.55	3.49	368_D03 (antibody, V domains shown, Group II) VH: EVQLLESGGGLVQPGGSLRLSCAASGFTFSDYSMHWVRQAPGKGLEWVASINYNGGYTSYADSVKGRFTISRDNSKNTLYLQMNSLRAEDTAVYYCARAATWHDTHLDYWGQGTLVTVSS VL: DIQMTQSPSSLSASVGDRVTITCRASQSIITYVNWYQQKPGKAPKLLIYATTSRASGVPSRFSGSGSGTDFTLTISSLQPEDFATYYCQQSYDLPLTFGGGTKVEIK

More lines, now with the values behind:

Binder	optical density [1] [OD]	optical density [2] [OD]	optical density [3] [OD]
368_A12 (antibody, V domains shown, Group I) VH: EVQLLESGGGLVQPGGSLRLSCAASGFTFDSYSMHWVRQAPGKGLEWVSSINYNSGYKGYADSVKGRFTISRDNSKNTLYLQMNSLRAEDTAVYYCARAANWHDTALDYWGQGTLVTVSS VL: DIQMTQSPSSLSASVGDRVTITCRASQSILTYLNWYQQKPGKAPKLVIYAATSRASGVPSRFSGSGSGTDFTLTISSLQPEDFATYYCQQSYDSPLTFGGGTKVEIK	3.01	2.78	3.69
368_B08 (antibody, V domains shown, Group I) VH: EVQLLESGGGLVQPGGSLRLSCAASGFTFDSYGMNWVRQAPGKGLEWVSSINYNGGYTSYADSVKGRFTISRDNSKNTLYLQMNSLRAEDTAVYYCARAANWHDTHLDYWGQGTLVTVSS VL: DIQMTQSPSSLSASVGDRVTITCRASQSILTYVNWYQQKPGKAPKLVIYAATSRASGVPSRFSGSGSGTDFTLTISSLQPEDFATYYCQQSYENPLTFGGGTKVEIK	1.98	2.18	3.21
368_B03 (antibody, V domains shown, Group I) VH: EVQLLESGGGLVQPGGSLRLSCAASGFTFDDYGMNWVRQAPGKGLEWVSGINYNGGYTSYADSVKGRFTISRDNSKNTLYLQMNSLRAEDTAVYYCARAANWHDTALDYWGQGTLVTVSS VL: DIQMTQSPSSLSASVGDRVTITCRASQSILTYLNWYQQKPGKAPKLVIYAATSLASGVPSRFSGSGSGTDFTLTISSLQPEDFATYYCQHSYENPLTFGGGTKVEIK	2.04	2.04	3.38
368_B10 (antibody, V domains shown, Group I) VH: EVQLLESGGGLVQPGGSLRLSCAASGFTFDSYGMHWVRQAPGKGLEWVASINYNGGYTSYADSVKGRFTISRDNSKNTLYLQMNSLRAEDTAVYYCARAANWHDTALDYWGQGTLVTVSS VL: DIQMTQSPSSLSASVGDRVTITCRASQSILTYLNWYQQKPGKAPKLVIYAATSRASGVPSRFSGSGSGTDFTLTISSLQPEDFATYYCQQSDELPLTFGGGTKVEIK	2.35	2.42	3.02
368_B12 (antibody, V domains shown, Group II) VH: EVQLLESGGGLVQPGGSLRLSCAASGFTFDSYGMHWVRQAPGKGLEWVSGINYNSGYTSYADSVKGRFTISRDNSKNTLYLQMNSLRAEDTAVYYCARAATWHDTHLDYWGQGTLVTVSS VL: DIQMTQSPSSLSASVGDRVTITCRASQSIVSYVNWYQQKPGKAPKLLIYAATSRASGVPSRFSGSGSGTDFTLTISSLQPEDFATYYCQQSYDLPLTFGGGTKVEIK	2.51	2.47	3.49
368_B11 (antibody, V domains shown, Group I) VH: EVQLLESGGGLVQPGGSLRLSCAASGFTFDSYGMHWVRQAPGKGLEWVSGINYNGGYKSYADSVKGRFTISRDNSKNTLYLQMNSLRAEDTAVYYCARAANWHDTHLDYWGQGTLVTVSS VL: DIQMTQSPSSLSASVGDRVTITCRASQSILSYLNWYQQKPGKAPKLLIYAASSLQSGVPSRFSGSGSGTDFTLTISSLQPEDFATYYCQQSYDSPLTFGGGTKVEIK	2.14	2.35	3.61
368_B04 (antibody, V domains shown, Group II) VH: EVQLLESGGGLVQPGGSLRLSCAASGFTFDSYGMHWVRQAPGKGLEWVSSINYNGGYTSYADSVKGRFTISRDNSKNTLYLQMNSLRAEDTAVYYCARAATWHDTHLDYWGQGTLVTVSS VL: DIQMTQSPSSLSASVGDRVTITCRASQSIVSYLNWYQQKPGKAPKLVIYAATSRASGVPSRFSGSGSGTDFTLTISSLQPEDFATYYCQQSYENPLTFGGGTKVEIK	2.27	2.73	3.29
368_C04 (antibody, V domains shown, Group II) VH: EVQLLESGGGLVQPGGSLRLSCAASGFTFDSYGMHWVRQAPGKGLEWVSNINYNGGYTSYADSVKGRFTISRDNSKNTLYLQMNSLRAEDTAVYYCARAATWHDTHLDYWGQGTLVTVSS VL: DIQMTQSPSSLSASVGDRVTITCRASQSILSYVNWYQQKPGKAPKLLIYAATSRASGVPSRFSGSGSGTDFTLTISSLQPEDFATYYCQQSYSTPLTFGGGTKVEIK	2.48	2.47	3.67
368_C07 (antibody, V domains shown, Group II) VH: EVQLLESGGGLVQPGGSLRLSCAASGFTFSSYGMHWVRQAPGKGLEWVAGINYNSGYTSYADSVKGRFTISRDNSKNTLYLQMNSLRAEDTAVYYCARAATWHDTHLDYWGQGTLVTVSS VL: DIQMTQSPSSLSASVGDRVTITCRASQSIVSYVNWYQQKPGKAPKLVIYAATSRASGVPSRFSGSGSGTDFTLTISSLQPEDFATYYCQQSYENPLTFGGGTKVEIK	2.58	2.37	3.31
